Test: soluble fraction after stress (log2 fold change); higher = more stays soluble; pooled small domains, quantitative proteomics
Conditions: stress: 75 degC
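Note: 20 min heating vs room temperature control held 20 min.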

Sequence	soluble fraction (log2)
HMEPALYRLFMAHPELNASAVARRLGIAQSLLAQYISGSKKPSPERERMILTEIHKIGEELATAS	-0.938
HMEPAPPPAAPPADPELQKRIDKLVEYIGKNGPEFEAVIRDKQHDNPDYAFVFGGEGHAYYRYLLWLLPRP	-0.466
HMEPELLTTKQVASVMNIGEERARAILLSRGVQPVSLPWGKERKTLRWSRRAVMTVIDTLHAEAQAKAGV	-2.59
HMEPLPDIPRGTRVSHQTAPADGDMPERRETGWTMTEPIRAQDGLAYVGVSVYGRGVVMLPVNSLSII	-0.384
HMEPSAQEIANKLLGHVKSLGLPITGLSISYNSTSDLATVRGQVQSQADREKIILAVGNVDHVAKVDDQLT	-0.028
HMEPSQEFSLADMVAYDLTGYPKSAALRAAVGASLGIGYGNAKQFVYRLNHYGISKDDFHRAAQEALDGL	-1.1
HMEPTAEQLKAIRQFASVNGRSWKSELRYLWETGAYHRAALGGADPGYLQQVRNQFGPGWLRAFKISK	-1.87
HMEPTPREIVVQQLGYRGLEVLGNAEYQFPKETQIIILKLAELISSGSVTETLEGGKLLALFRGVGINVR	-1.55
HMEPVQPVMYSEFIESVERGEVVEATIQGDKIIATDRSGNRYTVVGSAKDPQLVGQLLERNVAFKFVEE	0.118
HMEQAMIVILKENPDRRQLEFLTGWLQKQQIGIHISEGAHQTVLGLVGDATRLDIDMLKQMEIVEDVKRVQ	-0.823
HMEQGDTQQEIREKILNLLADGERHMITELKNIRTDQPIDDDKIVGKTLKTLLDEEEVYMDGSYIQLNG	0.653
HMEQIGSIIKDIRKKNNLTQNEFASILGVTFQAVSKWENDKSIPDITILKDISNKFNVDLNYLISG	-0.405
HMEQISVPIFTNDELVTFARSYSGELGYKIDDMAVLALYNRISNIQRLDQATTLTEVKDIVDEAVAKSE	0.096
HMEQLESAVASRTLIGQAQGVIMERYGLSAPNAFSVLSRISQDSNTKLAEVAQQIVATRRIPG	-0.093
HMEQLNKNIKFDNFLESLNFINKVSEVAEEENHHPDLKFGWGYADITIFTHAIKGLSEGDFVLAAKIDVI	0.19
HMEQMSLISKKKGERIDKFLGENLGDLSRSYIQKLLKDGLILVNGKKVKANYKLNEGDQIDVEVPDP	0.327
HMEQMSPYPNPSKGKIQFHNQEPMDIKVFNSLGQIVFEQRILSRAILDLSRLSPGQYIVQAGEQKNIWIK	-1.64
HMEQPPVPSVSITAALGSAVARRLAPHGFQKMPDLVDAYRAGKLAQISGIGGTTLDLIREWLTANARQQ	-0.441
HMEQQEFIVPHDSEGQRLDLFLVSVLGTHSRSQIRKLIVNGHVKLENRAPRPNLPVRAGESVVVSMPEPT	-0.849
HMEQQSIYLENRERMTINQVIDVDAFDEETLWANLKEGAVEISGSGLHIEKLDLAEGVLIVSGIIRAFAYV	-0.856
HMEQQVDYTQFIQDVRQGQIREVDVDRNGVINGIKRSGENFVTVIPGGYDRDLINDLVKQGVNATGEL	0.25
HMEQVKFFDAKVITTPPNRLKTRYTPAGNLRPEADWLQSGAIVPVYETSGAGWYRIGYQTWASAEWMQRLD	-2.8
HMEQVSDPALLERYAKEVVAASPKAVADYQAGNAKAFQALVGQMMKRTKGKGDPALIREILQKL	0.0645
HMEQVTMSNFLDKWGTSTKSPNAWYTSLSPMQKAEAKLLKEESGLTWNKWYEKNIYVGDGTN	0.985
HMERAYGVRVSLRLDDPFRTLLGADWSRTHWFASAEERDAALLEMSRKHEFSRPGDQPALVYEKVQN	-1.26
HMERDVNQLTPRERDILKLIAQGLPNKMIARRLDITESTVKVHVKHMLKKMKLKSRVEAAVWVHQERI	-1.55

Sequence	soluble fraction (log2)
HMEREQNILQGREVVERELRRLGLAEAYTVSDIAKALKFDDEEQFLAKVGFGDIQSRQISGAIALMEKN	-0.0753
HMERFLENAIPVLGETGLDIKSATEDFENALIRQALHLSGGNKNRAATLLGLKRTTFVEMLKRKSL	-1.12
HMERFMEFVITDTQQGQRLDVVLTETTEHLGSRSHMQRSIRAGLVSIDGITTTRASTKVSSGQIIRVEPT	-1.42
HMERGEFQKLGRATLEQTLARAGKTLAEVSLKAMLETFAFAAEEDLYEALGRGRVSAAKVGETLFPALKGR	-0.85
HMERKMKNNISDQTTYDTDKILNFNGKGYLNGLVIPNNYQIKEEGYYVFRQVALDGREQILYFTIQDLS	-1.98
HMERLSVSMGDMVVFVRDAVEAFRGLVKEKGITLTFESKVEHFYMNYDHDKVYKVVNNLLSNAVKFT	-0.145
HMERLTVVPELLKRSLSEAQPLVTSARLRLEVSGGAPEDTSRAIVVGQKPPPGTRVQVGTTVIVTVQIQRP	-0.534
HMERPYNGKQMEYHEGGVEKKETLFVEGGLSRVIQWDESGQKRSEVNISPTGVRREQYWDSSGKAIAKPS	0.14
HMERQAEAWTNRASALISLGRDEEALEAADRAIELDPRLSKAWIDRSTALSNLGRNDEANEAIQMAMFL	-0.12
HMERQILFTKEDLIEFGLSGGTDSRKRRDVLGHILGIGYSNSKQFLNRLNNFGVTREEFLSAIERIG	-0.816
HMERTVEVVDINDVFSQFLRLYSRERAAGLLSVFKRVEHGLSWQGNPVLLERILSNVFENAIKYAA	0.149
HMERVIYLLNGREVPAAEIRAAEPEALTVDRFYSSENLPAEYRDRNPELVVAFTAEEPLRHY	0.512
HMERVNILEKATKDIPNVEVKAFEGLSVNFARENHAQVIVRGLRAVTDFEYELQMAQTNRVLAPDVDTVF	-0.0564
HMERYSVQVGSFRNMRYAERLKQELQGEDFPAYIEKSGEFNRVRVGKGLTLEEATQLEQVLRKSGYQTVIV	-0.705
HMESIGANIRRLRKERNMSQDELARKAFTNRSNINRYESGKMVPSADTTEKIEEALGVPAGTLAQ	-0.214
HMESKDIRYVQLQTVSPEEVLQALALIMPRSDVYVEPTGKLVVLHGSKETLDRAEELILALDNAV	-0.116
HMESKITTAEAAAILNASPQFVRVAMQRGILNIGIAMQMPNSNKWTYNISPKLLGEYSGKNIEYELERLR	-1.65
HMESRTQVYDFYKDLFREKRRPLRAEEMLSALKSQRGIVGVNQYQIIEQHGIVRLSGSGRSALYWDTDLGS	-2.69
HMESSREVSFSEFMKQIDSGRVSSVKLDGETIYVRNSDGTSYKVIQPLGTDLIGVLRKSDIDVQAIKQ	0.107
HMESYNIVEQVLTKKILSKGNTLAKLSNEFDGLVMLVIRGDEFIIPNGETLLFEKDILVINNGP	-2.68
HMESYTGLAVTEDDDGWSNVRSGNSTSYSILFKIYAGEKFNILSNDGKWSYIDFNGRKGYIHNSIIRKY	-3.82
HMETAADLLAAAKENPARFGILASEGRFGLGYMNDDLLDPDNLVAISREEADDLRGLGVYFHNLD	0.293
HMETALYVEDLDRAVRFYESVMGLNTMSRGVRLVALDAGEGTVLLLFLRGATTSGASFEGGWIPPH	0.05
HMETDNEKVRTAFQNGLAAYREQDWDRAEAAFGAVLAEMPEDRPSLVYLERIAHLRKKAPPGAWDGVWI	-0.335
HMETENLSPREREILEYIVKGYSYKMIAADLNIATETVRSHIKKIYKKLQVNSATEAVYKYSN	-1.51
HMETEQVEMIRVVGMHVDEAKKALLDLGLSPEIKYEESSSYDAGTVLRASVQDGLMIDKGTNIVLTVAEA	0.293

Sequence	soluble fraction (log2)
HMETFEKIKELAKKRGKALGQVEEDLGYGRNTLYKIKNSTPNAERIAEIANYFNVSTDYLLGRTDNPTIAK	0.108
HMETFNMTQKEITRLRVINQAIDKVITIREAAELLGLSERQVIRLKGGVEKFGPAFIIHKNRGRKP	-1.57
HMETGLSNYEFKRIREQAEALLSDGQVRRINDLVDSIKNENAEKVIRVIRFLIDTEELILEDDRVSAKKS	-0.615
HMETIVGIDPDSKKKIVLKKGIKGRPDYLSFNKKNYSLPSELKEKNVSLEQALEIINDKKSNKKKIK	0.369
HMETLSKVGSTGSEVRQIQTKLKNWGYFSDKVDGIYGEKTRAAVVWFQKKNGLTADGIAGPATLKAMGIYT	-0.705
HMETLSVRERMTSIISLLNKHEDIEFSKLFNISEGRLGVVVTFLALLELVKESLVDVIQNQPMSKLYIGKK	-0.278
HMETLTPQEHKVLLLAVKGRTNGEIASELGIAQNTVKNHLAHIYAKMGVGNRTELASEYLRRIH	-0.203
HMETTEELISKTVPISYADMAALTGILDGVKSARGDIQVDDRTSTIIIHDIQSSIDEMMRLIKILD	-1.04
HMETTMVEIKAEFTIRNRLDIPAMMEKAGYKDRGEFLSVLEKITGNYNWDRDVKKGDTFMVPSKLA	-1.75
HMETVPMIDLRGMTQEQAEKAIVGLGLTVGTVDHSSSDMPAGQVWFQSVEPKDEVAPGTKVNIIISTGS	0.0577
HMETYNLDVGDSAVLQYQNVSRISVGNPDVLDAIPLDKSQILLTGKATGGAALIVWDSKGMHMEKVMVHPA	-0.428
HMETYTVSSKDGYANVRNEATVNSDLIAELKNGTLVTKFKEKGEWYYIEFEREDGTPFDYGYIHKSQLK	-0.00382
HMEVALEVPELRGLSMKQATNTLMASGFEVQKVGSGTIYAQFPLPGERLRTGYAVTIRGKTRDLG	-0.345
HMEVAPEKVLEALNELPEIYKIVLNLYAVENMSHKEIAKKLGISLGSSKSRLSRGRVMLNTLLNR	-1.3
HMEVDWLEVEKVIVSSSYSWMENSPKVKLLQEYIGVTADGIYGLGTWGAHRTHAVDLGFINLSYPIP	-0.129
HMEVEADEFQQLLRSGEYVQALDRARANQDIGLRQQQIVQIARHQAASGIQAGAMGSLASLYQF	-0.0286
HMEVHLMPGTVLLREYESNEYRVTVTPEGFYDLNGKVFKSLSAVARHITGVNWSGPRFFGVEP	-2.81
HMEVLSYYGSRGQEVVNIQTKLKQWGYYKGNIDGIFGNLTYQAVREFQRKNGLKVDGIVGPETLAALGLPT	-2.64
HMEVPQVETEKVEAKLKEAEVLLVKVTDSSLKANATETLAGLRNNLTLQTMDNNGIMAEAEKLLALLRES	0.0802
HMEVPTGNHIRRWRKSLDITQVKLSSLSGVAQSIIAKIENETVDPRVSTLRKLVEALSRFENP	-1.89
HMEVQVGKQVRAFRETLGMTVQQFAERTGFSAALLAQIENRMVSPSLGTLVKIANTFGTTVSSFIG	-0.0249
HMEVSTDADFEAVGIRAELIPILQKLGFTTVAQLKEVKATKLFNDIPGMRKKLKLDAVQNPTLQEIEGWLK	-0.0412
HMEVTLEEKLSYVEEYAKVHSHFSFRDLLKKQASKTQIVVTFLAILELMKTGKIQITQEHIFDDIVITAK	0.0631
HMEVTYQETLRVLYNAIDKLPPQTKEIILIGLDGKDNNEIAATLNISVNTVKTLKKNAYKTLRELLVD	0.0283

Reference: the domain aggregation screens of Martell et al. (2025)
